Measurements from US20210388110A1 (published 2021).

Biological target: T1, soluble human GPC3 (human, UniProt P51654 25-563, limits assumed)
T1 construct: soluble human GPC3 as analyte; also called glypican 3
Assay: SPR (Biacore), soluble human GPC3

T1 sequence (P51654 other isoform, or with tags, fused parts or gaps limits assumed, form in doubt): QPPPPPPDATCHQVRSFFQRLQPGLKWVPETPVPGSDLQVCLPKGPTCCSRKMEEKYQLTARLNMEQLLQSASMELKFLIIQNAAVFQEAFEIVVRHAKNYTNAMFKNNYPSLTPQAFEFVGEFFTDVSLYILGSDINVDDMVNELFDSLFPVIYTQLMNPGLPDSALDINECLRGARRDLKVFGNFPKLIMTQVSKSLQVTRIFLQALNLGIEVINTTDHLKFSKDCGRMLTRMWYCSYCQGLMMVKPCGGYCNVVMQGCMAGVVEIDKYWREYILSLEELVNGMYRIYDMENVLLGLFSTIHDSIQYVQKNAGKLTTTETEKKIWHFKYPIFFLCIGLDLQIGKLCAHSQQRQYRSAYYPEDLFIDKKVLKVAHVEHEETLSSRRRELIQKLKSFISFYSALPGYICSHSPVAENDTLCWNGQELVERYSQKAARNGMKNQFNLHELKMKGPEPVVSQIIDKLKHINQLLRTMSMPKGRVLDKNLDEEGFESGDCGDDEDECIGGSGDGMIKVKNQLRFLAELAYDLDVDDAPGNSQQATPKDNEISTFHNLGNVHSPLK

Kd | Binder
1.31 nM | H0610-G1dh/none-Hi-Kn010G3/L0237-k0 (antibody, human IgG1, kappa, single-arm (one Fab)) heavy: not shown EPKSSDKTHTCPPCPAPELLGGPSVFLFPPKPKDTLMISRTPEVTCVVVDVSHEDPEVKFNWYVDGVEVHNAKTKPREEQYNSTYRVVSVLTVLHQDWLNGKEYKCKVSNKALPAPIEKTISKAKGQPREPQVCTLPPSRDELTKNQVSLWCLVKGFYPSDIAVEWESNGQPENNYKTTPPVLDSDGSFFLYSKLTVDKSRWQQGNVFSCSVMHEALHNRYTQKSLSLSP light: DIVMTQSPLSLPVTPGEPASISCRSSQEPVHSNRNTYIHWYQQKPGQAPRLLIYKVSNRFSGVPDRFSGSGSGTDFTLKISRVEAEDVGVYYCYQGTQVPYTFGQGTKLEIKRTVAAPSVFIFPPSDEQLKSGTASVVCLLNNFYPREAKVQWKVDNALQSGNSQESVTEQDSKDSTYSLSSTLTLSKADYEKHKVYACEVTHQGLSSPVTKSFNRGEC
1.19 nM | H0610-G1dh/none-Hi-Kn010G3/L0242-k0 (antibody, human IgG1, kappa, single-arm (one Fab)) heavy: not shown EPKSSDKTHTCPPCPAPELLGGPSVFLFPPKPKDTLMISRTPEVTCVVVDVSHEDPEVKFNWYVDGVEVHNAKTKPREEQYNSTYRVVSVLTVLHQDWLNGKEYKCKVSNKALPAPIEKTISKAKGQPREPQVCTLPPSRDELTKNQVSLWCLVKGFYPSDIAVEWESNGQPENNYKTTPPVLDSDGSFFLYSKLTVDKSRWQQGNVFSCSVMHEALHNRYTQKSLSLSP light: DIVMTQSPLSLPVTPGEPASISCRSSESPVHSNRNTYIHWYQQKPGQAPRLLIYKVSNRFSGVPDRFSGSGSGTDFTLKISRVEAEDVGVYYCYQGTQVPYTFGQGTKLEIKRTVAAPSVFIFPPSDEQLKSGTASVVCLLNNFYPREAKVQWKVDNALQSGNSQESVTEQDSKDSTYSLSSTLTLSKADYEKHKVYACEVTHQGLSSPVTKSFNRGEC
0.637 nM | H0610-G1dh/none-Hi-Kn010G3/L0238-k0 (antibody, human IgG1, kappa, single-arm (one Fab)) heavy: not shown EPKSSDKTHTCPPCPAPELLGGPSVFLFPPKPKDTLMISRTPEVTCVVVDVSHEDPEVKFNWYVDGVEVHNAKTKPREEQYNSTYRVVSVLTVLHQDWLNGKEYKCKVSNKALPAPIEKTISKAKGQPREPQVCTLPPSRDELTKNQVSLWCLVKGFYPSDIAVEWESNGQPENNYKTTPPVLDSDGSFFLYSKLTVDKSRWQQGNVFSCSVMHEALHNRYTQKSLSLSP light: DIVMTQSPLSLPVTPGEPASISCRSSEPPVHSNRNTYLHWYQQKPGQAPRLLIYKVSNRFSGVPDRFSGSGSGTDFTLKISRVEAEDVGVYYCYQGTQVPYTFGQGTKLEIKRTVAAPSVFIFPPSDEQLKSGTASVVCLLNNFYPREAKVQWKVDNALQSGNSQESVTEQDSKDSTYSLSSTLTLSKADYEKHKVYACEVTHQGLSSPVTKSFNRGEC
0.848 nM | H0610-G1dh/none-Hi-Kn010G3/L0240-k0 (antibody, human IgG1, kappa, single-arm (one Fab)) heavy: not shown EPKSSDKTHTCPPCPAPELLGGPSVFLFPPKPKDTLMISRTPEVTCVVVDVSHEDPEVKFNWYVDGVEVHNAKTKPREEQYNSTYRVVSVLTVLHQDWLNGKEYKCKVSNKALPAPIEKTISKAKGQPREPQVCTLPPSRDELTKNQVSLWCLVKGFYPSDIAVEWESNGQPENNYKTTPPVLDSDGSFFLYSKLTVDKSRWQQGNVFSCSVMHEALHNRYTQKSLSLSP light: DIVMTQSPLSLPVTPGEPASISCRSSESPVHSNRNTYLHWYQQKPGQAPRLLIYKVSNRFSGVPDRFSGSGSGTDFTLKISRVEAEDVGVYYCYQGTQVPYTFGQGTKLEIKRTVAAPSVFIFPPSDEQLKSGTASVVCLLNNFYPREAKVQWKVDNALQSGNSQESVTEQDSKDSTYSLSSTLTLSKADYEKHKVYACEVTHQGLSSPVTKSFNRGEC
0.874 nM | H0610-G1dh/none-Hi-Kn010G3/L0239-k0 (antibody, human IgG1, kappa, single-arm (one Fab)) heavy: not shown EPKSSDKTHTCPPCPAPELLGGPSVFLFPPKPKDTLMISRTPEVTCVVVDVSHEDPEVKFNWYVDGVEVHNAKTKPREEQYNSTYRVVSVLTVLHQDWLNGKEYKCKVSNKALPAPIEKTISKAKGQPREPQVCTLPPSRDELTKNQVSLWCLVKGFYPSDIAVEWESNGQPENNYKTTPPVLDSDGSFFLYSKLTVDKSRWQQGNVFSCSVMHEALHNRYTQKSLSLSP light: DIVMTQSPLSLPVTPGEPASISCRSSESPVHSNRNTYLHWYQQKPGQAPRLLIYKVSNRFRGVPDRFSGSGSGTDFTLKISRVEAEDVGVYYCGQGTQVPYTFGQGTKLEIKRTVAAPSVFIFPPSDEQLKSGTASVVCLLNNFYPREAKVQWKVDNALQSGNSQESVTEQDSKDSTYSLSSTLTLSKADYEKHKVYACEVTHQGLSSPVTKSFNRGEC
